Experiments:
[1] = system: double- and single-stranded calf thymus DNA; test: Pull-down with DNA-coated cellulose beads; type: binding; conditions: 293T lysates
Protocol: GST-p12 and IN-HA were expressed in 293T cells from pCAGGS/GST and pCMV4/HA-derived plasmids respectively, by transient transfection using Turbofect (Thermo Fisher Scientific). Approximately 24 h after transfection, cells were changed into fresh media and incubated overnight at 37°C. Cells were then washed and lysed in 20 mM Tris-HCl pH 8.0, 300 mM NaCl, 1 mM EDTA, 10% Glycerol, 1% Triton X-100, protease inhibitors. Lysis was facilitated by passing the lysates through a 19-gauge needle x7 and sonication, x7 pulses, 30 s ON and 30 s OFF, in an ice bath (Decon FS100). After sonication, the lysates were supplemented with 4 mM MgCl2 and 1 mM DTT, and incubated for a further 1 h at 4°C. The lysates were then clarified by centrifugation and diluted 1:3 in 20 mM Tris-HCl pH 8.0, 10% glycerol, 4 mM MgCl2 and 1 mM DTT. The lysates were then normalised based on total protein concentration using the Bradford protein assay (Bio-Rad). 0.7 ml aliquots of lysates at 0.7 mg/ml were incubated with calf thymus DNA-coated cellulose beads (100 μl/reaction of a 50% slurry) (Sigma) for 1 h at 4°C with end-over-end rotation. The beads were then washed three times in 20 mM Tris pH 8.0, 100 mM NaCl, 0.33 mM EDTA, 10% Glycerol, 0.33% Triton X-100, 4 mM MgCl2 and 1 mM DTT and re-suspended in 50 μl of x2 protein loading dye for SDS-PAGE and immunoblotting.

[2] = system: GST-p12_WT; test: SILAC-MS of proteins enriched with GST-p12_WT relative to GST; type: binding, Mo-MLV; conditions: log2(H/L) >2.58 SDs from mean
Excerpt: To test whether GST-p12 was acting like the p12 region of Gag, we used a global proteomic approach based on stable isotope labelling by amino acids in cell culture (SILAC)-mass spectrometry (MS) to look for host proteins that interact with GST-p12 [35, 36]. A schematic diagram of the workflow is illustrated in Fig 4A. Briefly, GST, GST-p12_mut14 and GST-p12_WT were transiently-expressed in 293T cells cultured in light (R0/K0), medium (R6/K4) and heavy (R10/K8) SILAC media, respectively. Next, lysates of nocodazole treated transfected cells were prepared, normalised and used for parallel pull-down assays with glutathione-sepharose beads. The eluates from the beads were then pooled in a 1:1:1 ratio and subjected to LC-MS/MS analysis. The experiment was performed using biological replicates to test reproducibility of the mass-spec hits. The pull-down assays for this experiment were performed using mitotic cell lysates to facilitate identification of any potential chromatin interactions that were previously missed.
After removal of obvious contaminants (e.g. keratin) and non-quantified hits, 948 and 879 proteins were identified in replicates 1 and 2 (R1 and R2) of the experiment respectively (the false discovery rate (FDR) was set at 5%). To select proteins enriched in the heavy-labelled (H) GST-p12_WT sample relative to the light-labelled (L) GST sample, we compared the log2(H/L) silac ratios of the mass-spectrometry hits. When plotted as a frequency distribution, the log2(H/L) ratios of each replicate fitted well to a normal distribution curve (R^2 ≥ 0.98), allowing the mean and standard deviation to be accurately estimated (Fig 4B). In this experiment, contaminants/non-specifically bound cellular proteins were assumed to cluster around the mean of the distribution. […] Twenty one such proteins were identified in R1 and 22 identified in R2 (Fig 4B Venn diagram). […] These proteins were then ranked based on normalised abundance in the group. In mass-spectrometry analysis, larger proteins are in general assigned higher scores. Therefore, to control for protein size, we divided the number of peptide spectral matches identified for each protein with its length and then normalised the values across the group (Fig 4C and 4D). When ranked this way, the clathrin heavy chain (CLTC), clathrin interactor 1 (CLINT1) and NEDD4-like E3 ubiquitin ligase (WWP2) were identified as the top three hits. […] The function of clathrin in MLV infection is unclear. […] Thus, clathrin binding may be relevant to the early stages of MLV replication and should be investigated further.
For SILAC-MS experiments, 293T cells were grown is media containing light (R0K0, ^12C-Arginine and ^12C-Lysine), medium (R6K4, ^13C-Arginine and Lysine-4,4,5,5-d4) or heavy (R10K8, ^13C+^15N-Arginine and ^13C+^15N-Lysine) versions of L-Arginine and L-Lysine amino acids (Pierce) for a minimum of 6 doublings before transient expression of GST-p12 proteins. After performing the glutathione-sepharose pull-down assays equivalent volumes of the beads eluates were pooled and submitted to the Bristol University Proteomics Facility for RP nano-LC-MS/MS analysis. This analysis was performed on an LTQ-Orbitrap Velos mass spectrometer in line with a Dionex Ultimate 3000 nanoHPLC system as described in [53].
Supplementary file ppat.1007117.s005.xlsx: S1 Table Results from the first SILAC-MS analysis. GST, Mo-MLV GST-p12_mut14 or GST-p12_WT were transiently-expressed in 293T cells cultured in light (R0/K0), medium (R6/K4) and heavy (R10/K8) SILAC media, respectively. Mitotic cell lysates were subsequently used for glutathione-sepharose bead pull-down assays. Bead eluates were pooled in a 1:1:1 ratio and then analysed by LC-MS/MS. […] (XLSX) Click here for additional data file.

B1: GST-p12_WT: N-terminally GST-tagged Mo-MLV p12 (protein)
chain: PALTPSLGAKPKPQVLSDSGGPLIDLLTEDPPPYRDPRPPPSDRDGNGGEATPAGEAPDPSPMASRLRGRREPPVADSTTSQAF
modifications: left off: GST, N-terminal, kept
notes: N-terminally GST-tagged Mo-MLV p12
B1 was tested, and the “binding to DNA-coated beads” value [1] was “no binding to DNA was observed”, the “number of proteins significantly enriched vs GST in both replicates” value ([2]; R1 and R2) was “seven” and the “number of proteins significantly enriched vs GST” value ([2]; replicate 1) was “Twenty one”. For the same molecule, the “number of proteins significantly enriched vs GST” value ([2]; replicate 2) was 22 proteins.
